This passage reports binding signal (fold recovery over beads only) results from US20100048413.

This series has as its system aspRS-OB wild type (anticodon-binding OB-fold domain of aspartyl-tRNA synthetase) (Pyrobaculum aerophilum). Briefly: pulldown. To be noted: phage binding to immobilised tRNA; RNase A elution; VCS-M13 without display 1.42.

“asp-tRNA (P. aerophilum, in vitro transcript)” came in with a binding signal (fold recovery over beads only) of 190.
